Substitutions are numbered along the chain they refer to. Names may count otherwise. Values belong to the binder of their own block, whether it stands above or below them.
How the values were obtained:
[1] = target: T1, full-length KIF1C(Y757A ∙ F764A)−Flag−EGFP (UniProt O43896)
T1 sequence: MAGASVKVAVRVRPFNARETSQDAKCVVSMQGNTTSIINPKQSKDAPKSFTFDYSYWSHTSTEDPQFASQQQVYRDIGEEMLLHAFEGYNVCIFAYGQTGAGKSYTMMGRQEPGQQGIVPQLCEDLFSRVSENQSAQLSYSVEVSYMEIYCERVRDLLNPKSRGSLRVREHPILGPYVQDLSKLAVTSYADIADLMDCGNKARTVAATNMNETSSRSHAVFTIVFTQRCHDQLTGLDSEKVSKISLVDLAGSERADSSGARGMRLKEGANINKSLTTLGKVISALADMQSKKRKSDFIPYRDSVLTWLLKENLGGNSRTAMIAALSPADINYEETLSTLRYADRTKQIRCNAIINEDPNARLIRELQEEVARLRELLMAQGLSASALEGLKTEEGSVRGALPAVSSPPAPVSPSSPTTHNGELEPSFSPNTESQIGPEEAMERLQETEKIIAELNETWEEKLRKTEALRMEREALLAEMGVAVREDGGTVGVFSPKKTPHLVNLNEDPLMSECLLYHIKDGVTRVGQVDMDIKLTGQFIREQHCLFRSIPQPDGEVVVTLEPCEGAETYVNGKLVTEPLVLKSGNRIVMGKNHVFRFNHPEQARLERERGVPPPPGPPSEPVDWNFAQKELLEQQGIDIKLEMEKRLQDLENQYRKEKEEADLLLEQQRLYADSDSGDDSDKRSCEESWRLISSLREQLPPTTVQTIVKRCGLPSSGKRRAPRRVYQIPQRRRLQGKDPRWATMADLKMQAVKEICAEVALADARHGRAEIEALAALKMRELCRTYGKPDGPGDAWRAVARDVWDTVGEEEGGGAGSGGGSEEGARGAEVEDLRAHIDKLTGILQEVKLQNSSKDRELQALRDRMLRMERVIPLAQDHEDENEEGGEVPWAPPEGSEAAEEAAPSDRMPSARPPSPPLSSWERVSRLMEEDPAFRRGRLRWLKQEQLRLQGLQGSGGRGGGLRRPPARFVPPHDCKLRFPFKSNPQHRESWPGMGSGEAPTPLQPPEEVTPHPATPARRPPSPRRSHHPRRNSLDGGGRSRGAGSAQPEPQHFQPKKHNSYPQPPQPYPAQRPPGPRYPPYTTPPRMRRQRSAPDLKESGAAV

[2] = target: T2, full-length KIF1C(WT)−Flag−EGFP (UniProt O43896)
T2 sequence: T1 sequence with A757Y, A764F

tail/cytoplasm ratio of Hook3−Myc−FuRed upon co-expression in RPE1 cells, 16 h post transfection (tail/cytoplasm ratio) [1]: 0.7
tail/cytoplasm ratio of Hook3−Myc−FuRed upon co-expression in RPE1 cells, 16 h post transfection (tail/cytoplasm ratio) [2]: 0.7
B1: full-length Hook3(V614E)−Myc−FuRed (natural protein)
chain: MFSVESLERAELCESLLTWIQTFNVDAPCQTVEDLTNGVVMAQVLQKIDPAYFDENWLNRIKTEVGDNWRLKISNLKKILKGILDYNHEILGQQINDFTLPDVNLIGEHSDAAELGRMLQLILGCAVNCEQKQEYIQAIMMMEESVQHVVMTAIQELMSKESPVSAGNDAYVDLDRQLKKTTEELNEALSAKEEIAQRCHELDMQVAALQEEKSSLLAENQVLMERLNQSDSIEDPNSPAGRRHLQLQTQLEQLQEETFRLEAAKDDYRIRCEELEKEISELRQQNDELTTLADEAQSLKDEIDVLRHSSDKVSKLEGQVESYKKKLEDLGDLRRQVKLLEEKNTMYMQNTVSLEEELRKANAARSQLETYKRQVVELQNRLSEESKKADKLDFEYKRLKEKVDSLQKEKDRLRTERDSLKETIEELRCVQAQEGQLTTQGLMPLGSQESSDSLAAEIVTPEIREKLIRLQHENKMLKLNQEGSDNEKIALLQSLLDDANLRKNELETENRLVNQRLLEVQSQVEELQKSLQDQGSKAEDSVLLKKKLEEHLEKLHEANNELQKKRAIIEDLEPRFNNSSLKIEELQEALRKKEEEMKQMEERYKKYLEKAKSEIRTLDPKQNQGAAPEIQALKNQLQERDRLFHSLEKEYEKTKSQREMEEKYIVSAWYNMGMTLHKKAAEDRLASTGSGQSFLARQRQATSSRRSYPGHVQPATAR

tail/cytoplasm ratio of Hook3−Myc−FuRed upon co-expression in RPE1 cells, 16 h post transfection (tail/cytoplasm ratio) [1]: 0.7
B2: full-length Hook3(WT)−Myc−FuRed (natural protein)
chain: B1 chain with E614V
